Assay results from patent publication US20210252159A1, “CONJUGATES OF CARTILAGE-HOMING PEPTIDES” (priority 2018, published 2021).
No end group written: not given here.

What was measured:
[1] = Comparison of joint retention time among radiolabeled peptides (QWBA, knee and IVD); type: in vivo; set-up: Peptide Signal Retention in Knee / Peptide Signal Retention in IVD: unit not given here; settings: for joint retention: SEQ ID NO: 105 57-60 nmol, SEQ ID NO: 103 130 nmol, SEQ ID NO: 184 150 nmol
Description: Frozen carcasses were allowed to off gas hexane overnight at −20° and then embedded in chilled 2% carboxymethylcellulose (Sigma Aldrich) and sectioned sagittally at a thickness of 40 μm on an H/I Bright 8250 Cryostat (Hacker Instruments). Radioactive control guides were drilled into each block to verify even cutting depth along the length of the section. The radioactive guide consisted of ^14C-Glycine (American Radiolabeled Chemicals, “ARC”) at 0.5 uCi/ml in 0.5% BSA (Sigma Aldrich) in PBS. Sections were collected onto 4-inch wide tape (Scotch 821, ULINE) at 2-4 depths to sample approximately 30 tissues with particular focus on the knees and spine. Collected sections were freeze dried in the cryostat for 48-72 hours then mounted on sturdy paper and covered with a single protective layer of cellophane (Reynolds Food Service Film). Mounted sections were exposed to phosphor imager plates (Raytest) along with a radioactive standard Curve (1465-PL, ARC) for 7-days, scanned on a Raytest CR-35 at “25 μm sensitive” setting.
Quantification of the radioactivity detected in WBA samples was evaluated by measuring the pixel density/mm^2 (“SI”: Signal Intensity/Area−background) using AIDA Image Analyzer v 5.1 Whole Body Autoradiography Professional software (Raytest). Regions of interest (ROIs) were drawn manually around the entire visible tissue, comparing the sectioned sample to the autoradiogram. For quantification, all visible knee or IVD (intervertebral disc) tissues for one rodent across all collected sections were measured and averaged together to generate one knee or IVD value per animal. Typically were sampled 1-2 knee values (from femoral and tibial cartilage) per 1-2 sections per animal and 3-10 IVD per 1-2 sections per animal. To collect quantified values for other tissues, ROIs were drawn around blood in the heart ventricle, spinotrapezius muscle, the liver, or the kidney (including cortex and medulla) in all sections in which the tissue was observed and then averaged to yield one value per tissue per animal.
Data were presented as nmol of compound per gram of tissue. The commercial standard strips co-exposed with each WBA sample set were calibrated so that a known amount of radioactive counts per minute (CPM) per gram of tissue, determined by liquid scintillation counting (LSC), corresponded to the measured WBA SI at 11 standard strip concentration data points. The regression line of the log 10 transformed WBA signal intensity plotted against the log 10 transformed CPM/g gave a linear range of 1×10^5 to 7.5×10^7 WBA SI, corresponding to 6.3 nCi/g to 3.3 μCi/g. The log 10 concentration of radioactivity in each tissue (CPM/g) was interpolated from the standard curve, converted to linear values, and translated from CPM/g to uCi/g by interpolation against an LSC CPM to μCi standard curve. Uptake (nmol of compound/g of tissue) was determined by dividing the μCi/g tissue by the μCi/nmol specific activity of the peptide.
Peptide(SEQ ID NO: 105) was dosed at 57-60 nmol. Peptide(SEQ ID NO: 103) was dosed at 130 nmol. Peptide(SEQ ID NO: 184) was dosed at 150 nmol. […] It should be noted that detection of retention is based on an assay that detects radiolabeling of the N-terminus of each of the tested conjugates, thus decrease in signal over time may be due not only to peptide diffusion back out of the cartilage but also aminopeptidase-mediated removal of N-terminal amino acid, general peptide cleavage, or other mechanisms. Results as measured by QWBA methods described herein are shown in Tables 6 and 7 below and FIG. 11.

[2] = Biodistribution and pharmacokinetics of ^14C-labeled peptides in knee and IVD (QWBA); type: in vivo, athymic nude mice; settings: for levels in knee and IVD compared with peptide(SEQ ID NO: 105): After 24 hours
Description: Synthetic peptides were radiolabeled by reductive methylation of the N-terminus with ^14C formaldehyde. 2 mice per time point were injected IV with 12.4 μCi of peptide (approximately 100 nmol or 18 mg/kg) and then euthanized at 0.08, 0.5, 1, 3, 8, 24, 48, 72, or 96 hours, followed by quantitative whole body autoradiography analysis.
To that end, the biodistribution pharmacokinetics of ^14C-labeled peptides ^14C-peptide(SEQ ID NO: 105), ^14C-peptide(SEQ ID NO: 103), and ^14C-peptide(SEQ ID NO: 184) to the knee (FIG. 19A and FIG. 19B) and intraverterbral discs (IVD, FIG. 19C and FIG. 19D) was assessed in mice (FIG. 19). Tissue levels were quantified by whole body autoradiography of peptides that had been radiolabeled by reductive methylation of the N-terminus. ^14C-peptide(SEQ ID NO: 105) and ^14C-peptide(SEQ ID NO: 103) both peaked in knee and IVD around 1-3 hours whereas ^14C-peptide(SEQ ID NO: 184) peaked later at 8 hours. […] All peptides still had observable signal at the last time point of 96 hours. […] As the peptide levels are based on the radiolabel attached to the N-terminus of the peptide, the decrease in signal with time may be due to aminopeptidase activity on the N-terminus of the peptides (which would not be relevant on PDC conjugates, where the drug linker is attached to the N-terminus), due to peptide diffusion back out of the cartilage, or due to general peptide backbone cleavage. For example, higher sustained levels of peptide in the cartilage may be desirable if drug cleavage has a slower pharmacokinetics, and if the peptide-drug conjugate is not saturating peptide binding sites in the cartilage when using repeat dosing. As another example, an earlier tmax in cartilage may be desirable to minimize premature cleavage of a conjugated drug in serum.

## GSSERDCIRHLQRCRENRDCCSRRCSRRGTNPERRCR (not fully specified (N-terminus, bridges); cysteine pairing not given here) [peptide(SEQ ID NO: 103), cartilage-homing cystine-dense peptide; biodistribution with form ^14C-methylated on the N-terminus]
[1]; 0.08 Hours
  Peptide Signal Retention in IVD: 59.15
  Peptide Signal Retention in Knee: 79.20
[1]; 0.5 Hours
  Peptide Signal Retention in IVD: 76.62
  Peptide Signal Retention in Knee: 110.57
[1]; 1 Hours
  Peptide Signal Retention in IVD: 100.00
  Peptide Signal Retention in Knee: 100.00
[1]; 3 Hours
  Peptide Signal Retention in IVD: 113.18
  Peptide Signal Retention in Knee: 103.00
[1]; 8 Hours
  Peptide Signal Retention in IVD: 107.52
  Peptide Signal Retention in Knee: 98.94
[1]; 24 Hours
  Peptide Signal Retention in IVD: 50.75
  Peptide Signal Retention in Knee: 44.60
[1]; 48 Hours
  Peptide Signal Retention in IVD: 34.86
  Peptide Signal Retention in Knee: 29.30
[1]
  joint retention: Longer joint retention
[2]
  levels in knee and IVD compared with peptide(SEQ ID NO: 105): substantially higher levels

## GSGDCLPHLRRCRENNDCCSRRCRRRGANPERRCR (not fully specified (N-terminus, bridges); cysteine pairing not given here) [peptide(SEQ ID NO: 184), cartilage-homing cystine-dense peptide; biodistribution with form ^14C-methylated on the N-terminus]
[1]; 0.08 Hours
  Peptide Signal Retention in IVD: 53.02
  Peptide Signal Retention in Knee: 96.94
[1]; 0.5 Hours
  Peptide Signal Retention in IVD: 49.70
  Peptide Signal Retention in Knee: 69.85
[1]; 1 Hours
  Peptide Signal Retention in IVD: 100.00
  Peptide Signal Retention in Knee: 100.00
[1]; 3 Hours
  Peptide Signal Retention in IVD: 238.11
  Peptide Signal Retention in Knee: 158.43
[1]; 8 Hours
  Peptide Signal Retention in IVD: 119.97
  Peptide Signal Retention in Knee: 111.32
[1]; 24 Hours
  Peptide Signal Retention in IVD: 64.00
  Peptide Signal Retention in Knee: 57.81
[1]; 48 Hours
  Peptide Signal Retention in IVD: 49.99
  Peptide Signal Retention in Knee: 50.44
[1]; 72 Hours
  Peptide Signal Retention in IVD: 52.20
  Peptide Signal Retention in Knee: 28.30
[1]; 96 Hours
  Peptide Signal Retention in IVD: 36.54
  Peptide Signal Retention in Knee: 11.84
[1]
  joint retention: Longer joint retention
[2]
  levels in knee and IVD compared with peptide(SEQ ID NO: 105): substantially higher levels
[2]; mice, approximately 100 nmol IV, QWBA
  time of peak in knee and IVD: 8 h
